In patent US20210147523A1 (TEIJIN PHARMA, published 2021):

Tests used:
[1] = molecular target: T1, human SPNS2 (human, UniProt Q8IVW8 1-549); assay: Cell ELISA
T1 construct: S1P transporter; in Cell ELISA and S1P assays on Flp-in 293 cells that also express human SphK1; also called Spinster homolog 2; native type
T1 sequence: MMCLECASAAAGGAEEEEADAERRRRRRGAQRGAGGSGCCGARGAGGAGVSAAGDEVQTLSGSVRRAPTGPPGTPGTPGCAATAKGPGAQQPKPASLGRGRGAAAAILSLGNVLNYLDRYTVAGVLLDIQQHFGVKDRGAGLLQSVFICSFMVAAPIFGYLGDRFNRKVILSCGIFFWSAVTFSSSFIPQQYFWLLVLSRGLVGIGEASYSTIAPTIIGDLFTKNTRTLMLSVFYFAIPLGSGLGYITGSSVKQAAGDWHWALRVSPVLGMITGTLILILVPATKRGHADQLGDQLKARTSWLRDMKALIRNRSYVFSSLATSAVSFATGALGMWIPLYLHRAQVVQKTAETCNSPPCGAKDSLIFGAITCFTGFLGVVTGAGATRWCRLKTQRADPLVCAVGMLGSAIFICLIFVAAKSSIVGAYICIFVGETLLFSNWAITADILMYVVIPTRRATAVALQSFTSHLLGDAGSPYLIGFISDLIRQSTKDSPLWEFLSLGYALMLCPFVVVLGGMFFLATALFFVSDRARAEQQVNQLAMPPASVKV
Protocol: (§1) Human and mouse SPNS2 and human SphK1 double stable expression Flp-in 293 cells were added to a poly D lysine coat 96-well plate (Corning, 356461) in a density of 1×10⁵ cells/well and was cultivated overnight, and then the culture medium was removed. An anti-SPNS2 antibody solution was adjusted into 20 μg/mL using 0.2% FBS/3% BSA/PBS, and 0.2% FBS/3% BSA/PBS (60 μL) was added to the antibody diluted solution (20 μL) to prepare seven-step diluted solutions by four fold serial dilution. Each diluted solution of the anti-SPNS2 antibody was added in a volume of 30 μL/well, and reacted for about one hour at room temperature. The antibody solution was removed, and the residue was washed with PBS containing 0.05% Tween 20 (PBS-T) two times, and fixed for about ten minutes at room temperature using 10% buffered formalin (Mildform (Trade mark) 10NM, Wako). After washing with PBS-T one time, a 5000-fold diluted solution of anti-rat IgG antibody HRP conjugate (Southern Biotech, 3030-05) in 0.2% FBS/3% BSA/PBS was added to each well (30 μL), and reacted for about one hour at room temperature. After washing with PBS-T four times, a substrate (TMB; 3, 3′, 5, 5′-tetramethylbenzidin) was added to each well (100 μL) to initiate the reaction. After 20 minutes, 2N sulfuric acid was added to each well (100 μL), and absorbance at 450 nm and 550 nm was measured. […] Each antibody bound to human SPNS2 and mouse SPNS2.

[2] = molecular target: T2, mouse SPNS2 (mouse, UniProt Q91VM4 1-549); assay: Cell ELISA
T2 construct: on Flp-in 293 cells that also express human SphK1
T2 sequence: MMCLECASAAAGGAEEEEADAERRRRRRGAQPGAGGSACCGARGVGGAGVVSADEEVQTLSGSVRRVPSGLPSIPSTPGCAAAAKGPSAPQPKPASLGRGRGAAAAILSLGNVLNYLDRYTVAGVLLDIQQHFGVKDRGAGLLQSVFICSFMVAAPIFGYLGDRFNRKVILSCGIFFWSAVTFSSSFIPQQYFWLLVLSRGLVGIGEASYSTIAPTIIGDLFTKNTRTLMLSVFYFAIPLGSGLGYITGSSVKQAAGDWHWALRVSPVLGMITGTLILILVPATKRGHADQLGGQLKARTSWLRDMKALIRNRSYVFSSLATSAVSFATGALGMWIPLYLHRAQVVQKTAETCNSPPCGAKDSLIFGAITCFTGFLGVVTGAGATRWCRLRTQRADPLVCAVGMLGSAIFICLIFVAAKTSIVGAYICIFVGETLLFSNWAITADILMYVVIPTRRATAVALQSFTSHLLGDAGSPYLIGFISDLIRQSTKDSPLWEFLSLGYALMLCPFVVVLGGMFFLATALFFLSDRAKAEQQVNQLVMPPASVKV
Protocol: as §1

[3] = molecular target: T1, human SPNS2; assay: cell-based or functional assay
[4] = molecular target: T2, mouse SPNS2; assay: cell-based or functional assay
[5] = molecular target: T3, Mutant 3 of human SPNS2 (FLAG tag inserted in extracellular loop 7) (human, UniProt Q8IVW8 1-549); assay: flow cytometry, FLAG-insertion mutant
T3 construct: on HEK293 cells; also called extracellular loop 7 mutant
T3 sequence: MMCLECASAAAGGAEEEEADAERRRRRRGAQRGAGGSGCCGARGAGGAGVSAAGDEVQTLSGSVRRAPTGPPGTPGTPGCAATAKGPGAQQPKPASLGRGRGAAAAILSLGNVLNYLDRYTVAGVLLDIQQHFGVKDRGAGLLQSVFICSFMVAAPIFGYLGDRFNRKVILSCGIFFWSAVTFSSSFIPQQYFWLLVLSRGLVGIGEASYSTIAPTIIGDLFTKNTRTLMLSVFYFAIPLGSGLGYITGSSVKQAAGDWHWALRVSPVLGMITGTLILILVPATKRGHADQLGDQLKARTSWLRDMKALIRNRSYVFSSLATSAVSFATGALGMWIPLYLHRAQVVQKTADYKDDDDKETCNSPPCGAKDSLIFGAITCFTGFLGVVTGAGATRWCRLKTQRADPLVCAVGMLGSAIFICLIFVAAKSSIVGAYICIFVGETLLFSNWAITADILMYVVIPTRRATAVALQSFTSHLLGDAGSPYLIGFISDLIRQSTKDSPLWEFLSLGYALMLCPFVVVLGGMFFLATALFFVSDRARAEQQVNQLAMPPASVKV
Protocol: After the lipofection, the HEK 293 cells cultivated overnight were recovered from the culture dishes, and reacted with a cell staining buffer (BioLegend, 420201) containing an anti-FLAG antibody (Sigma-Aldrich, F1804) and an anti-SPNS2 antibody each in a volume of 20 μg/mL for 30 minutes at room temperature. After washing with a cell staining buffer one time, the anti-FLAG antibody was detected with an anti-mouse IgG-Alexa 647 conjugate antibody, and the anti-SPNS2 antibody was detected with an anti-rat IgG-FITC conjugate antibody with flow cytometer BD LSR Fortessa (Becton Dickinson). The binding ability to each mutant was evaluated with the ratio of the FITC-positive cell rate to the Alexa 647-positive cell rate. In Table 7, symbol (+) indicates a ratio of less than 0.1, symbol (±) indicates a ratio of 0.1 or more and less than 0.5, and symbol (−) indicate a ratio of 0.5 or more.

B1: 37-0511F (antibody, IgG2b, V domains shown)
VH: EVHLQQSGAALVRPRASVKLSCKVSGDSISRYYVHFVKQRPGQGLEWIGRIDPEDDTTKYSEKFKNRATLTADASSDTASLILSGLTSDDTATYFCSTLTGLDYWGQGVMVTVSS
VL: DIQMTQSPPVLSTSVGDRVTLRCKPSQNVHSKLDWYQQKHGEAPKLLIYYTHNLQTGIPSRFSGSGSGTDYTLTISSLQPEDVATYYCFQYYSGWTFGGGTKLEMKR
Emax [1]: 1.35 absorbance | pEC50 [1]: 8.2 pEC50 (M) | Emax [2]: 1.29 absorbance | pEC50 [2]: 8.01 pEC50 (M) | pIC50, S1P transport inhibition (LC-MS/MS of S1P) [3]: 7.7 pIC50 (M) | pIC50, S1P transport inhibition (LC-MS/MS of S1P) [4]: 7.8 pIC50 (M)

B2: 53-0707E (antibody, IgG2b, V domains shown)
VH: EVQLQQSGAELVRPRTSVKLSCKVSGDSITRYYVHFVKQRPGQGLEWIGRIDPEDDTTKYSEKFKKKATLTADASSNTAYLIFSGLTSEDTATYFCSTLTGLDYWGQGVMVTVSS
VL: DIQMTQSPPVLSTSVGDRVTLRCKASQNVHSKLDWYQQKHGEAPKLLIYYTHNLQTGIPSRFSGSGSGTDYTLTISSLQPEDVATYYCFQYYSGWTFGGGTKLEMKR
Emax [1]: 1.62 absorbance | pEC50 [1]: 7.87 pEC50 (M) | Emax [2]: 1.43 absorbance | pEC50 [2]: 7.82 pEC50 (M) | pIC50, S1P transport inhibition (LC-MS/MS of S1P) [3]: 7.3 pIC50 (M) | pIC50, S1P transport inhibition (LC-MS/MS of S1P) [4]: 7.6 pIC50 (M)

B3: 82-1109A (antibody, IgG2b, V domains shown)
VH: QVQLQQSGVELAKPGSSVKISCKASGNTFTSNYITWIKQTPGQGLEYIGYINTGSGKTYYNEKFKGKATLTADKSSSTAFMQLSSLTPDDSAVYFCASLTGVDYFDDWGQGVMVTVSS
VL: DDIVLTQSPALAPSLGQRATISCRASQSVRMSGYNLMHWYQQKPGQQPKLLIYDASKLASGIPARFSGSGSGTDFTLTIDPVQSDDIATYYCQQSKDDPYTFGAGTKLELRR
pEC50 [1]: 7.83 pEC50 (M) | pEC50 [2]: 7.83 pEC50 (M) | FITC+/Alexa 647+ cell rate ratio [5]: < 0.1 ratio

B4: 50-0704C (antibody, IgG2b, V domains shown)
VH: EVQLVGSGGGLVQPGRSMKLSCEASGFTFSNHYMAWVRQAPTKGLEWVATISTGGGNTYYRDSVKGRFTISRDNARSTLSLQMDSLRSEDTATYYCARQDYSNYMGGFAYWGQGTLVTVSS
VL: QFVLTQPNSVSTNLGSTVKLSCTRSIGNIGNNYVNWYKQYEGRSPTTMIYRDDERPDGVPDRFSGSIDRSSNSALLTINSVQTEDEADYFCQSFSSGIFIFGGGTKLTVL
Emax [1]: 1.82 absorbance | pEC50 [1]: 8.15 pEC50 (M) | Emax [2]: 1.9 absorbance | pEC50 [2]: 7.75 pEC50 (M) | FITC+/Alexa 647+ cell rate ratio [5]: ≥ 0.5 ratio | pIC50, S1P transport inhibition (LC-MS/MS of S1P) [3]: 7.6 pIC50 (M) | pIC50, S1P transport inhibition (LC-MS/MS of S1P) [4]: 7.8 pIC50 (M)

B5: 18-0211B (antibody, IgG2b, V domains shown)
VH: AVQLVGSGGGLVQPGRSMKLSCEASGFTFSNHYMAWVRQAPTRGLEWVATISTGGGNTYYRDSVKGRFTISRDNTRSTLSLQMDSLRSEDTATYYCTRQDYTNYMGGFAYWGQGTLVTVSS
VL: QFVLTQPNSVSTNLGSTVKLSCTRSIGNIGNNYVNWYKQYEGRSPTTLIYRDDERPDGVPDRFSGSIDRSSNSALLTINSVQTEDGADYFCQSFSSGIFIFGGGTTLTVL
Emax [1]: 1.72 absorbance | pEC50 [1]: 8.59 pEC50 (M) | Emax [2]: 1.61 absorbance | pEC50 [2]: 8.37 pEC50 (M) | FITC+/Alexa 647+ cell rate ratio [5]: ≥ 0.5 ratio | pIC50, S1P transport inhibition (LC-MS/MS of S1P) [3]: 7.9 pIC50 (M) | pIC50, S1P transport inhibition (LC-MS/MS of S1P) [4]: 8.1 pIC50 (M)

B6: 89-1207D (antibody, IgG2b, V domains shown)
VH: EVQLVGSGGGLVQPGRSMKLSCEASGFTFSNHYMAWVRQAPTKGLEWVATISTGGGNTYYRDSVKGRFTISRDNARSILSLQMDSLRSEDTATYYCARQDYSNYMGGFAYWGQGTLVTVSS
VL: QFVLTQPNSVSTNLGSTVKLSCTRSIGNIGNNYVNWYKQYEGRSPTTMIYRDDERPDGVPDRFSGSIDRSSNSALLTINNVQTEDEADYFCQSFSSGMFIFGGGTKLTVL
Emax [1]: 2.03 absorbance | pEC50 [1]: 7.97 pEC50 (M) | Emax [2]: 1.85 absorbance | pEC50 [2]: 7.72 pEC50 (M) | FITC+/Alexa 647+ cell rate ratio [5]: ≥ 0.5 ratio | pIC50, S1P transport inhibition (LC-MS/MS of S1P) [3]: 7.6 pIC50 (M) | pIC50, S1P transport inhibition (LC-MS/MS of S1P) [4]: 7.8 pIC50 (M)
